The values below are quoted from earlier work in publication PMC7911819.

This data set deals with calmodulin (Homo sapiens) (UniProt P0DP23).

CyaA 1-370 (from UniProt P0DKX7): the Kd is less than 100 pM.
